test: yeast display, Sf9 membrane polyspecificity reagent, FACS + sequencing; frameworks hold sequencing errors
Summary of the method: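 A synthetic nanobody library was expressed on Saccharomyces cerevisiae BJ5465 by galactose induction for 36–48 hours. The library was stained for 1 hour at 4 °C with 10% biotinylated, detergent-solubilized Sf9 membrane reagent and enriched with streptavidin microbeads before FACS. Low and high (top ~1%) gates were set on anti-HA fluorescence for expression and streptavidin fluorescence for reagent binding, and each polyreactivity label reflects the gate of origin.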

| Sequence | polyreactivity (PSR sort gate) |
| --- | --- |
| QVQLVESGGGLVQAAGSLRLSCAASGLTFGGYPMGWYRQAPGKERELVAAISRSCGSTYYADSVKGRFTISRDNAKNTVYLQMNSLKPEDTAVSYCNAGRDTKYDYWGQGTQVTVSS | low polyreactivity |
| QVQLVESVGGLVQAGGSLRLSCAASVYIFGYNAMGWYRQAPGKERELVAAISRSAGRTYYAVSVKGRFTISRDNAKNTVYLQMNSLKPEDTAVYYCAAQSYWLCYEYWGHGTQVTVSS | high polyreactivity |
| QVQLVESGGGLVQAGGSLRLSCAASGLTIWRYALGWYRQAPGKEREFVATISQNGGRTYYADSVKGRFTISRDNAKNTVYVQMNSLKPEDTAVYYCADDDWRWGYDYWGQGTQVTVSS | high polyreactivity |
| QVQLVESGGGLVQAGGSLRLSCAASGIIFYYYAMGWYRQAPGKERELVAAISTSGGRTYYADSVKGRFTISRDNAKNTVYLQMNSLKPEDTAVYYCAKDFWYVTGGWSSGMDYWGQGTQVTVSS | low polyreactivity |
| QVQLVESGGGLVQAGGSLRLSCAASGIIFGTYVMGWYRQAPGKERELVAAINRSGGNTYYADSVKGRFTISRDNEKNTVYLQMNSLKPEDTAVYYCAAEEAYRSRRGGFDYWGQGTQVTVSS | high polyreactivity |
| QVQLVESGGGLVQAGGSLRLICDASGRIFATNAIGWYRQAPGKERELVATITRSAGRTYYADSVKGRFTISRDNAKNTVYLQMNSLKPEDTAVYYCAASYWDTEPGYREYDYWGQGTQVTVSS | low polyreactivity |
| QVQLVESGGGLVQAGGSLRLSCAASGSIFRDYVMGWYRQAPGKERELVAAISGNDGSTYYADSVKGRFTISRDNAKNTVYLQMNSLKPEDTAVYYCNADEASTVPLFYSYLDFDYWGQGTQVTVSS | low polyreactivity |
| QVQLVESGGGLVQAGGSLRLSCAASGLTFKSYAMGWYRQAPGKETELVAAISWRGGRTYYADSVKGRFTISRDNAKNTVYLQMNSLKPEDTAVYYCNARSQQWWLSRYNYWGQGTQVTVSS | high polyreactivity |
| QVQLVESGGGLVQAGGSLRLSCAASGSIVTSNAMGWYRQAPGKERELVAAITSSSSTNYADSVKGRFTISRDNAKNTVYLQMNSLKPEDTAVYYCAADYTWYYPYWIMDYWGQGTQVTVSS | low polyreactivity |
| QVQLVESGGGLVQAGGSLRLSCAASGLTFDYYTMGWYRQAPGNERELVAAINWSGGRTYYADSVKGRFTISRDNAKNTVYLQMNSLKPEDTAVYYCAAETYRRHDYDYWGQGTQVTVSS | high polyreactivity |
| QVQLQESGGGQVQAGGSLRPSCAASGSISDRVPMGWYRQAPGEERELVATTVLGATTNYADSVKGRFTISRGNAKNTVYLQMNSLKPEETAVYYCAAPLRYDKGFSYWGEGTQVTVSS | low polyreactivity |
| QVQLVESGGGLVQAGGSLRLSCAASGSTYPYAMGWYRPAPGKERELVAAITWSGGNTYYADSVKGRFTISRDNAKNTVYLQMNSLKPEDTAVYYCAKSRYATQTDYNYWGQGTQVTVSS | high polyreactivity |
| QVQLVESGGGLVQAGGSLRLSCAASGSIFRNYAMGWYRQAPGKERELVAVITQRGGRTYYADSVKGRFTISRDNAKNTVYLQMNSLKPEDTAVYYCAASYRGVPEYDSWGQGTQVTVSS | low polyreactivity |
| QVQLVESGGGLVQAGGSLRLSSAASGRIFYFNARGWYRQAPGKARELVAGISSGGSTDYADSVKGRFTISRDNAKNTVDLQMNSLKPEDTAVYYCATRRSRYSYSGYWGQATQVTVSS | high polyreactivity |
| QVQLVESWGGIVQAGGSLRLSCAASGFIFSRYGMGWYRQAPGKERELVAAISRSAGSTYYADSVKGRFTISRDNAKNTVYLQMNSQKPEETAVYYCAARHGGRATVEPPIQGYGYWGQGTQVTVSS | low polyreactivity |
| QVQLLESGGGLVQAGGSLRLSCASSGRTFVYYAMGRYRQAPGKERELVAAITFSGGSTYYADSVKGRFTISRDNAKNTVYLQMNSLKPEDTAVYYCAAQYRYSYPLGDYWGQGPQVTVSS | low polyreactivity |
| QVQLEESGGGLVQAGGSLRLSCAASGFILCDYAMGWYRQATGKERELVAGINYRGGSTHYADSVKGRFTISRDIAKNTVYLQMNSLKPEDTAVYYCSKRRQSYPYKTSTWYSHYSWGQGTQVTVSS | high polyreactivity |
| QVQLVESGGGLVQAGGSLRLSCAASGNTSPYSAMGWYRQAPGKEREWVAGISSGGTTNYADSVKGRFTISRDNAKNTVDLQMNSLKPVDTAVYYCAADEWYVECLGYFFAYDYWGQGTQVTVSS | low polyreactivity |
| QVQLVESGGGLVQAGGSLRLSCAASGSTFSNYAMGGYRQAPGKERELVAAITSGGTTNYADSVKGRFTISRDNAKNTVYLQMNSLKPEDTAVYYCAKRYSYHVPTHIWVEYYYWGQGTQVTVSS | low polyreactivity |
| QVQLVESGGGLVQAGGSLRLICAASGSTFDLYAMGWYRQAPGKESELVAAITRCGSTYYADSVKGRFTISRDNAKNTVYLQMNSLKPEDTAVYYCAASRYYNTVHNGGDYWGQGTQVTLSS | high polyreactivity |
| QVQLVESGGGLVQAGGSLRLSCAASGSIFRINAMGWYRQAPGKEREFVAAISSRGGSTYYADSVKGRFTISRDNAKNTVYLQMKSLKPEDTAVYYCAKYASVGYGRYPYDYWGQGTQVTVSS | high polyreactivity |
| QVQLVESGGGLVQAGGSLRLSCAATGSTIRSYGMGWYRQAPGKERELVASISWSGGSTYYADSVKGRFTISRDNAKNTVYLQMNSLKPEDTAVYYCAAGTLYSLYFGRHGYWGQGTQVTVSS | low polyreactivity |
| QVQLVESGGGLVQAGGSLRLSCAASGSIFQGYALGWYRQAPGKERELVAAITASGGSTYYADSVKGRFTISRDNAKNTVYLQMNSLKPEDTAVYYCATDSYWRQDLYRYEYWGQGTQVTVSS | high polyreactivity |
| QVQLVESGGGLVQAGGSLRLSCAASGSTFGYYAMGWYRQAPGKERELVAAITGRGGSTYYADSVKGRFTISRDNAKNTVYLQMNSLKPEDTAVYYCAVGKYRLYYSGAYGYWGQGTQVTVSS | high polyreactivity |
| QLQLVESGGGLVQSGGSLRLSCAASGRTFDWYTKGWYRQAPGKERELVAAITSGGTTNYADSVKGRFTISRDNAKNTVYLQMNSLKPEDTAVYYCAKDEGEGYDYWGQGTQVTVSS | low polyreactivity |
| QVQLVESGGGLVQAGGSLRLSCAASGITFRRNAMGWYRQAPGKERELVAGITRGGTTKYADSVKGRFTISRDNAKNTVYLQMNSLKPEDTAVYYCNAVTRRHKYYYWGQGTQVTVSS | high polyreactivity |
| QVQLVESGGGLVQAGGRLRLSCAASGNTFYLNAIGWYRQAPGKERELVAAITIRGDSTYYADSVKGRFTISRDNAKNTVYLQMISLKPEDTAVYSCAAPWAWNTGYRVYYGGQGTQVTVSS | high polyreactivity |
| QVQLVESGGGLVQAGGSLRLSCAASGRNFIDYMGWYRQAPGKERELVAAIDSGASTYYADSVKGRFTISRDNAKNTVYLQMNSLNPEDTAVYYCAADVVYDYGGMDYWGQGTLVTVSS | low polyreactivity |
| QVQLVESGGCLVQSGGSLRLSCAATGSTFGRNAMGWSRQAPGKESELVAAISRGGGITYYADSVKGRFTISRDNAKNTVYFQMNSLKPEDTAVYYCNAYLSKYFRYDYWGQGTQVTVSS | high polyreactivity |
| QVQLVESGGGLVQAGGSLLLSCAASGRIFWHNTMGWYRQAPGKERELVAGISVSGGSTYYADSVKGRFTISRDNAMNTVYLKMNSLKPEDTAVYYCAARKVTSWKAHFRFDYWGQGTQVTVSS | low polyreactivity |

From the nanobody polyreactivity screen of Harvey et al. (2022)
